Experimental data taken from patent US6350431B1, “Compounds” (Nycomed Imaging AS, priority 1997, dated 2002).

What was measured:
Solubility of Sudan III = assay type: physicochemical
HT-29 tumors [1] = experiment: Photographic / visual light imaging of HT-29 tumors from mice 24 hours post injection of contrast agent; assay type: in vivo, female immunodeficient mice
Method: FIG. 4 is a photograph taken under room fluorescent light of female immunodeficient mice with exposed human HT-29 tumors 24 hours post intravenous (tail vein) injection with 0.1 mg/(g body weight) in PBS of the blue contrast agent NC100526. The labeled sheet to the right of the mice was spotted with PBS solutions of several contrast agents of this invention and then dried in order to show how they appear under various illumination and imaging conditions. The tumors (indicated by arrows) have been sliced to expose their interiors as well as their exteriors.
The light source was ambient fluorescent room light.
The photograph was taken with black-and-white infrared film using irradiation at 780 nm from an array of light-emitting diodes. These conditions gave maximum absorption and contrast enhancement of NC100448 as evidenced by the darkened spot of contrast agent on the paper chart.
FIGS. 8a and 8b are photographs of two views taken from different angles of HT-29 tumors sliced open and removed from mice at 24 hours post injection with 10 mg/(g body weight) of NC100505 in PBS and irradiated with 366 nm wavelength light. […] In the black and white photograph they appear as bright spots. Other organs and the skin appear normal.
FIG. 10a is a photograph of a collection of excised tumors viewed under ambient fluorescent room light. The top row contains tumors resected from mice at 24 hours post i.v. injection with NC100505 in PBS. The second, third, and fourth rows are tumors resected from mice 24 hours post i.v. injection with PBS solutions of NC100526, NC100448, and NC100524, respectively. […]
FIG. 11 is a photograph of a set of excised tumors irradiated with 780 nm infrared light that were removed from mice 24 hours post injection with PBS solutions of NC100448 (top row) and indocyanine green (bottom row). The image was recorded with an infrared sensitive CCD camera (Bischke, Type N-CCD-4024, fitted with a Computar TV Zoom lens 1:1.2/12.5-75) on VHS tape (Maxell HGX Plus) at 30 frames/sec using a Panasonic AG-1310P HQ Video Cassette Recorder with super 4-Head VHS SQPB). […]

HT-29 tumors [2] = experiment: Biodistribution of chromophore-polymer in HT-29 tumored mice after intravenous injection; assay type: in vivo, female immunodeficient mice; conditions: for injected dose localized in the tumor: after one hour, solution in phosphate buffered saline injected
Method: General Method Used For the Measurement of Chromophore-Polymer Distribution in the Mouse
Tac:N:NIH(S)-nufDF, female immunodef icient mice
Tac:Cr:NCr-nufBr, female immunodeficient mice
HT29-Human Colon Carcinoma
The mice were randomised into groups based on tumor volumes. On the day of the study, the test articles (Polymers 1,2) were injected into the mice via the tail vein. Chloroaluminium phthalocyanine tetrasulfonate was used as a reference compound (control) in one group of mice in these studies. […] The blood was collected by heart puncture and put into either EDTA or Lithium Heparin tubes. The samples were then spun down and the plasma was collected and weighed. The spleen, liver, kidneys, muscle and tumor were collected, rinsed with PBS and weighed in pre-tared tubes. The samples were then either refrigerated for immediate analysis or frozen at −20 degrees Celsius and subsequently analysed.
B) Plasma Collection and Preparation
Plasma was collected in tared Eppendorf tubes and the tubes were weighed. To each tube was added 1 mL of ethanol. The contents of the tubes were mixed with a vortex mixer and then micro-centrifuged at 14000 rpm for 2 min. The supernatant liquid was transferred by pipette into a clean and labelled Eppendorf tube. This procedure was repeated for all plasma samples. Each sample was transferred to a clean cuvette and the amount of chromophore was determined by absorbance at a predetermined wavelength. Concentration of the chromophore in the sample was determined by comparison with a standard curve generated from known concentrations of chromophore.
C) Organ Collection and Preparation
Organs were removed from the mice, placed in tared sample tubes, and the new weights were recorded. To each tube was added 1 mL of deionised water, and the organs were homogenised. The homogenate was transferred into a tared Eppendorf tube and the weight was recorded. To this homogenate was added 500 μl of ethanol, the mixture was mixed by vortex mixer, and the contents of the tube was centrifuged in a micro-centrifuge at 8000 rpm for 2 min. The supernatant was transferred by pipette into a clean Eppendorf tube. To the residual pellet was added 500 μl of ethanol, the mixture was mixed by shaking vigorously in a vortex mixer, and the sample was centrifuged again. The supernatants were combined, transferred to a clean cuvette, and the concentration of the chromophore was determined spectroscopically at pre-determined absorbance by comparison with the standard curve. The mean concentration of the chromophore in each organ was determined by regressional analysis.

[3] = 3 hr, i.v. 0.05 mg/(g body weight) in PBS, HT 29 tumored mice
[4] = 6 hr, i.v. 0.05 mg/(g body weight) in PBS, HT 29 tumored mice
[5] = 24 hr, i.v. 0.05 mg/(g body weight) in PBS, HT 29 tumored mice
[6] = at 24 hours, i.v. 0.05 mg/(g body weight) in PBS
[7] = one hour post intravenous injection of phosphate buffered saline solution, mice with HT-29 tumors
[8] = three hours post intravenous injection of phosphate buffered saline solution, mice with HT-29 tumors
[9] = three hours versus one hour post intravenous injection
[10] = female immunodeficient mice with HT-29 tumors
[11] = 6 hr after injection, Table 2, female immunodeficient mice with HT-29 tumors
[12] = 48 hr after injection, Table 2, mice with HT-29 tumors
[13] = within 24 hours, Table 2 experiment

For `Oc1ccc2ccccc2c1N=Nc1ccc(N=Nc2ccccc2)cc1` [Sudan III], the “solubility in sesame oil” value (Solubility of Sudan III) was “soluble in sesame oil” and the solubility in water (Solubility of Sudan III) was “very water insoluble”.

With “Bisthioether 2:1 Dye:Polymer Reaction Product Between 2-[2-[2-chloro-3-[[1,3-dihydro-1,1,-dimethyl-3-(3-sulfopropyl)-2H-benz[e]indol-2-ylidene]ethylidene]-5-(ethoxycarbonyl)-1-cyclohexen-1-yl]ethenyl]-1,1-dimethyl-3-(3-sulfopropyl)-1H-benz[e]indolium, Inner Salt, Sodium Salt and Disodium PEG3,400-α,ω-dithiolate [NC100448]” the “appearance of tumors, black-and-white infrared film, irradiation at 780 nm” value (HT-29 tumors [1]; 24 hours after injection of 0.05 mg/(g body weight) in PBS, versus control tumors) was “uniformly darker than control tumors”, the “appearance of excised tumors irradiated with 780 nm infrared light, infrared sensitive CCD camera” value (HT-29 tumors [1]; 24 hours post injection in PBS, compared to tumors from mice injected with ICG) was “significantly darker” and the “contrast agent / darkening along the tumor edges” value (HT-29 tumors [1]; 24 hours post injection, sliced tumors) was “do not show darkening around the edges”. For the same compound, the Plasma (HT-29 tumors [2]; [3]) was 14.33 ± 1.33 percent injected dose of the contrast agent per gram of tissue, the Tumor (HT-29 tumors [2]; [3]) was 5.57 ± 0.73 percent injected dose of the contrast agent per gram of tissue and the Plasma (HT-29 tumors [2]; [4]) was 8.44 ± 1.33 percent injected dose of the contrast agent per gram of tissue. For the same compound, the Tumor (HT-29 tumors [2]; [4]) was 8.6 ± 1.53 percent injected dose of the contrast agent per gram of tissue, the Plasma (HT-29 tumors [2]; [5]) was 0.46 ± 0.40 percent injected dose of the contrast agent per gram of tissue and the Tumor (HT-29 tumors [2]; [5]) was 7.53 ± 0.74 percent injected dose of the contrast agent per gram of tissue. For the same compound, the “clearance of contrast agent from the blood (in words)” value (HT-29 tumors [2]; [6]) was “largely cleared”, the “concentration of contrast agent in the tumors (in words)” value (HT-29 tumors [2]; [6]) was “remained relatively high” and the “contrast agent in the muscle (in words)” value (HT-29 tumors [2]; [6]) was “not increased”. For the same compound, the “detection in the tumor” value (HT-29 tumors [2]; [7]) was “detected in the tumor”, the “detection in the tumor” value (HT-29 tumors [2]; [8]) was “detected in the tumor” and the “concentration of the contrast agent in the blood, FIG. 3B relative to FIG. 3A” value (HT-29 tumors [2]; [9]) was “decreased”. The “concentration of the contrast agent in the tumor, FIG. 3B relative to FIG. 3A” value (HT-29 tumors [2]; [9]) was “increased”.

For “Aluminum Chlorophthalocyaninetetrasulfonyl Chloride Polymer With PEG3,400-α,ω-diamine [Polymer 1]”, the “injected dose localized in the tumor” value (HT-29 tumors [2]; [10]) was 4% and the “detection in the tumor” value (HT-29 tumors [2]; [7]) was “detected in the tumor”.

With “[NH(PEG3400)NHSO2PcAlCl (SO3H)2SO2]n [Example 18]” the “injected dose localized in the tumor” value (HT-29 tumors [2]; [10]) was 4%.

With `CC1(C)C(/C=C/C=C/C=C/C=C2\N(CCCCS(=O)(=O)O)c3ccc4ccccc4c3C2(C)C)=[N+](CCCCS(=O)(=O)[O-])c2ccc3ccccc3c21` [indocyanine green, reference compound] the “detection in the tumor” value (HT-29 tumors [2]; [7]) was “negligibly detected” and the “detection in the tumor” value (HT-29 tumors [2]; [8]) was “negligibly detected”.

In the case of “chloroaluminum phthalocyanine tetrasulfonate [reference compound]”, the “detection in the tumor” value (HT-29 tumors [2]; [7]) is reported as “negligibly detected”.

With “[PcAlCl(SO3H)3SO2NH]2[PEG 10,000] [NC100481]” the Muscle (HT-29 tumors [2]; [11]) was 10.3 ± 17.9 percent injected dose of the contrast agent per gram of tissue, the Plasma (HT-29 tumors [2]; [11]) was 7.4 ± 0.3 percent injected dose of the contrast agent per gram of tissue and the Tumor (HT-29 tumors [2]; [11]) was 21.0 ± 7.1 percent injected dose of the contrast agent per gram of tissue. The Tumor (HT-29 tumors [2]; 24 hr after injection, Table 2, mice with HT-29 tumors) was 16.6 ± 3.9 percent injected dose of the contrast agent per gram of tissue, the Muscle (HT-29 tumors [2]; [12]) was 59.5 ± 42.9 percent injected dose of the contrast agent per gram of tissue and the Tumor (HT-29 tumors [2]; [12]) was 9.1 ± 4.5 percent injected dose of the contrast agent per gram of tissue. For the same compound, the “concentration of contrast agent in the tumor (in words)” value (HT-29 tumors [2]; after 48 hours, Table 2 experiment) was “remained at a high concentration”, the “clearance of contrast agent from the blood (in words)” value (HT-29 tumors [2]; [13]) was “cleared” and the “clearance of contrast agent from the muscle (in words)” value (HT-29 tumors [2]; [13]) was “cleared”.

In the case of ClAlPc(SO2NHPEG5000)4 [Example 20], the “injected dose localized in the tumor” value (HT-29 tumors [2]; [10]) is reported as 2.5%.

In the case of “Aluminum Chlorophthalocyanine Tetrasulfonyl Chloride Polymer With PEG5,000-α,ω-diamine [Polymer 2]”, the “injected dose localized in the tumor” value (HT-29 tumors [2]; [10]) is reported as 2.5% and the “detection in the tumor” value (HT-29 tumors [2]; [7]) is reported as “detected in the tumor”.
